The values below come from patent US5747321.

This experiment addresses fused protein β-gal97S4DhCNP-22R5-3 (human) (UniProt P23582).

For the substance “natural V8 protease (Staphylococcus aureus V8 protease) (from UniProt P0C1U8) (enzyme)”, the cleavage efficiency (proportion of fused protein cleaved) was 60%.
